Among the data in patent US6706266, “Oncostatin M antagonists” (SmithKline Beecham Corporation) are IC50, binding result and Kd values, retold here.

For data set [1], the target named is T1, oncostatin M (hOSM, mature) (Homo sapiens, UniProt P13725 SEQ:26-221).
T1 sequence: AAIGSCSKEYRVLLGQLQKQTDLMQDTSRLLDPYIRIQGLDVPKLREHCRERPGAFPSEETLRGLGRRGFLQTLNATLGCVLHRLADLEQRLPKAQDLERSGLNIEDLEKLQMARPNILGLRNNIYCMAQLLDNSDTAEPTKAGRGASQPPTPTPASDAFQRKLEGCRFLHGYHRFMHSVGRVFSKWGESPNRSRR
Kind of data set: competition; blocks OSM binding to gp130-Fc, ELISA. As to conditions: tags: expressed in E. coli as GST fusion, GST removed by thrombin cleavage. How it is done:
Effect of Point Mutations on the Ability of OSM-GST to Compete with Wild Type OSM Binding to gp130-Fc in an ELISA Nunc Immunoplates (F6 Maxisorp, Life Technologies) were coated overnight (4° C.) with wild type OSM (produced according to Example 7a); 50 µl/well, 1 µg/ml in carbonate/bicarbonate buffer pH 9.4). Plates were washed (×6 in PBS 0.05% tween 20, using Skatron Plate washer), tapped dry and blocked to reduce non-specific binding (200 µl/well, 1% BSA/PBS). Following 1 h incubation (room temperature on a shaking platform) the plates were tapped dry and wild type (wt) or mutant OSM-GST from Example 9b added (50 µl/well, 20–0.002 µg/ml, titrated in 1%BSA/PBS). As a positive control polyclonal anti-human OSM antibody (R&D Systems) was also tested (20–0.02 µg/ml). […] Following a 5 h incubation (room temperature on a shaking platform) the plates were washed (×6) and developed using ELISA Amplification System (Life Technologies) as manufacturer's instructions and the OD measured at 490 nm. On each plate the total binding was determined by gp130-Fc/conjugate and OSM in the presence of 1%BSA/PBS, and non-specific binding by gp130-Fc/conjugate in absence of OSM, or conjugate binding to OSM in absence of gp130-Fc. […]

Another data set addresses TNF alpha (biotinylated) (UniProt P01375 P01375:77-233). In words: competition; no inhibition of TNFalpha binding to TNFR1. As to conditions: tags: biotin, NEN; chain copies: 3. How it is done:
Nunc Immunoplates (F6 Maxisorp, Life Technologies) were coated overnight (4° C.) with sheep anti-human IgG (Serolabs) (50 µl/well, 1 µg/ml in PBS). Plates were washed (×6 in PBS 0.05% tween 20, using Skatron Plate washer), tapped dry and blocked to reduce non-specific binding (200µl/well, 1% BSA/PBS). […] As a positive control an anti-TNFR1 monoclonal antibody (R&D Systems) was included. […] Following a 2 h incubation (room temperature on a shaking platform) the plates were washed (×6) and developed using ELISA Amplification System (Life Technologies) according to the manufacturer's instructions and the OD measured at 490 nm.

Data set [2] addresses T2, oncostatin M (murine OSM) (Mus musculus, UniProt P53347 P53347:23-206).
T2 sequence: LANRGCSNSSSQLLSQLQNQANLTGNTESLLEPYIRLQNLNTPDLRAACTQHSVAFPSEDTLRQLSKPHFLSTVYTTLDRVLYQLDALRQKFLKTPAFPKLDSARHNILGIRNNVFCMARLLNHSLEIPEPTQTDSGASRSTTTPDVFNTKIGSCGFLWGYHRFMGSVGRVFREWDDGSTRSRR
In words: filter; no binding at any concentration tested. To be noted: tags: R&D Systems.

The target of data set [3] is T1, oncostatin M (hOSM, mature). Kind of data set: filter; SCHMK buffer (1 mM MgCl2, 1 mM CaCl2), 37 C. To be noted: tags: expressed in E. coli as GST fusion, GST removed by thrombin cleavage.
Experimental: Binding assays were carried out as described (Fitzwater and Polisky supra). […] Transcribed RNA was dephosphorylated using bacterial alkaline phosphatase for 30 min at 65° C. Dephosphorylated RNA was then 5' labelled using polynucleotide kinase and γ-^33P ATP. Radiolabelled RNA was gel purified, and incubated at 37° C. for 30 min with a serial dilution of hOSM in SCHMK buffer (45 μl OSM plus 5 μl radiolabelled RNA at 1000 cpm/μl). […] The filters were washed immediately with 5 ml SCHMK buffer, dried and counted in a liquid scintillation counter. […] The data sets were fitted by the non-linear least squares method using an EXEL software package.

Sequence of TNF alpha (biotinylated) (P01375 77-233, one chain of several): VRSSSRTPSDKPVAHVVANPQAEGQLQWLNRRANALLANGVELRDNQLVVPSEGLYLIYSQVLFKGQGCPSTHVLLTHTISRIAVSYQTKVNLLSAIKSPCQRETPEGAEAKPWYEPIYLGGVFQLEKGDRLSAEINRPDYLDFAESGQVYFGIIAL

B1: ADR58 (ssRNA)
RNA: GGGAGGACGAUGCGGAUCGCCCUGAACCGGCCCAGCAGACUGCUGACGGCACGAUCAGACGACUCGCCCGA
modifications: 2'-F C and U (2'-F pyrimidines), 2'-OH purines
As to B1, in data set [1], the IC50 was approximately 30 pmol/well. Also, the binding result (in the data set with TNF alpha (biotinylated); in data set [2]) was “no binding” in each case. For the same molecule, binding in data set [3] was put at a Kd of 7 nM.
